The values below come from paper doi:10.1101/370411.

This assay addresses Porcine circovirus 2 (PCV2) virus like particle, Baculovirus expressed capsid protein (Porcine circovirus 2). Kind of assay: cryo-EM structure.

Usually stoichiometry N stands for a count of units in the complex or per binding partner. As to “Porcine circovirus 2 (PCV2) virus like particle, Baculovirus expressed capsid protein (natural protein)”, the stoichiometry N worked out at 60.
